B1: ZC3H15 (parent)
chain: ENLFTGEDLDELEEELNTLDLEE
B2: WEE1 (parent)
chain: FLGSSFSPVRCGGPGDASPRGCGA

Variants of: B1
Assay: protein stability index of a GFP-peptide fusion (GPS, HEK-293T) (PSI 1-6); higher = more stable
Details: c terminus: native
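Further: lentivirally expressed fusions sorted by FACS into six bins by GFP to DsRed ratio, PSI derived from sequencing read proportions per bin multiplied by bin number.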

Protein stability index: each site, then its substitutions
E11: L 4.3 | K 4.83 | C 4.52 | N 4.58 | R 4.98 | H 4.58 | P 4.06 | T 4.9 | A 3.93 | F 3.64 | V 4.1 | G 5.13 | D 4.58 | W 4.67 | S 4.93 | Q 4.89 | M 4.25 | I 4.71
L3: G 4.81 | A 4.1 | P 4.65 | Q 4.62 | S 5.2 | V 4.6 | T 4.71 | H 4.39 | Y 3.6 | K 4.06 | R 4.71 | W 3.55 | C 3.83 | D 5.09 | N 4.8 | E 4.08 | M 5.09 | I 4.57
D10: P 5 | F 4.12 | Y 3.33 | Q 4.89 | R 5.07 | M 3.89 | A 5.27 | E 5.05 | I 4.73 | V 5.1 | N 5.33 | H 4.89 | G 4.73 | W 4.02 | L 4.28 | K 4.35
E7: V 3.99 | I 4.49 | M 4.69 | D 4.93 | F 4.42 | S 5 | K 4.01 | Y 4.23 | N 4.68 | A 4.55 | C 4.38 | R 4.69 | Q 4.11 | W 4.54 | H 4.66 | L 3.98 | P 4.16
N2: W 3.12 | R 4.94 | M 4.08 | Q 4.71 | C 4.28 | V 4.17 | Y 4.78 | T 4.23 | S 4.6 | I 3.61 | H 4 | E 4.39 | P 4.24 | K 3.49
L12: E 4.79 | A 3.23 | I 4.14 | G 4.72 | F 3.84 | C 4.9 | D 5.07
F4: A 4.68 | G 4.83 | N 4.74 | C 5.49 | E 4.31 | S 5.13 | W 4.5 | D 5.08 | Q 4.69 | L 4.58 | R 4.67 | I 5.19 | P 5.03 | V 3.57 | K 3.66 | M 4.5 | H 4.55 | Y 4.6
T5: S 4.32 | C 5.08 | N 4.41 | H 4.56 | M 4.69 | E 4.65 | W 4.51 | G 4.5 | F 4.19 | V 3.27 | P 4.66 | I 4.05 | Y 4.25
E1: N 4.12 | P 4.12 | L 4.16 | F 3.23 | A 4.26 | S 4.42 | K 3.59 | H 3.66 | D 4.19 | V 4.25 | W 2.89 | Y 3.58 | C 3.8 | M 3.76 | I 3.24 | Q 4.14 | T 4.11
D8: I 4.13 | C 4.99 | K 4.39 | V 4.83 | W 4.09 | N 3.93 | E 4.58 | L 4.72 | G 5.03 | P 4.24 | R 5.05 | H 4.66 | S 5.14 | T 4.25 | Q 4.58
G6: I 4.2 | K 4.79 | T 4.81 | D 4.93 | A 4.82 | L 4.85 | Q 4.41 | M 4.68 | R 4.51 | N 4.83 | S 4.88 | Y 4.58 | V 4.28 | H 4.37 | F 4.3
L9: Y 2.68 | W 3.09 | V 4.68 | I 5 | Q 3.82 | S 4.49 | H 3.51 | A 4.25 | T 4 | F 3.48 | K 2.38 | N 4.1 | M 4.69 | G 4.03 | R 3.18 | C 4.43 | E 4.54 | P 4.55 | D 3.87

Variants of: B2
Assay: as above
Details: c terminus: a fixed tail appended

Protein stability index, by site and new letter:
C11: S 2.62 | M 2.4 | Q 2.48 | W 1.46 | L 2.22
D16: C 2.57 | G 1.99 | I 1.61 | T 1.57 | P 1.73 | K 1.81 | A 1.26 | W 1.74
P19: D 2 | R 2.38 | C 1.98 | Y 1.12
G21: W 1.38
S7: Y 2.16 | M 2.48 | D 3.47 | C 2.41 | G 2.73 | N 2.22 | K 2.47
A17: I 1.87 | R 2.21 | Q 1.53 | V 1.47 | K 1.53
A24: L 1.82 | Q 1.52 | C 2.6 | W 1.37 | F 2.42
L2: D 3.37 | Q 1.85 | G 1.93 | E 3.41 | H 2.02 | P 2.04 | R 3.13
G3: S 1.92 | W 2.79 | Y 1.91 | P 2.12 | M 1.68 | L 1.65 | E 2.58
R20: T 1.8 | I 1.23 | D 2.17 | G 1.36 | Y 3.14 | K 1.62
S4: K 2.34 | Y 1.75 | G 2.16 | N 2.07 | T 1.56 | I 2.49 | R 1.69
G13: C 2.58 | R 1.87 | P 2.12 | L 2.58 | A 1.94 | M 1.58 | W 1.56 | V 2.05
R10: I 2.25 | Y 1.07 | P 2.04 | C 1.73 | H 2.63 | K 2.68 | E 3.27 | A 1.83 | G 1.42
P8: V 1.97 | R 1.48 | E 2.23 | M 1.85 | H 1.71 | S 2.51
G12: T 1.63 | F 1.43 | K 2.31 | N 2.56
F1: M 2.29 | Y 1.87 | D 2.95 | S 2.87 | P 3.4
C22: S 2.73 | K 2.17 | I 1.58 | Q 1.73 | H 2.94 | A 1.88 | L 1.75
F6: R 2.95 | Y 1.81 | Q 3.41 | L 2.84
S5: T 1.59 | M 2.27 | H 1.73 | G 1.91 | V 1.39 | Q 1.58 | I 1.92
G23: H 3.02 | F 2.37 | Q 1.73 | A 2.4 | T 1.7 | Y 1.4 | R 1.79
V9: R 2.39 | H 2.22 | E 2.79 | Y 1.25 | N 2.51
S18: Q 1.96 | N 1.84 | M 1.62 | E 2.15 | G 1.98 | W 2.3 | T 1.42 | P 2.89 | I 1.75
G15: H 1.76 | E 1.59 | N 1.77 | A 2.45 | R 1.56 | D 2.06 | K 1.93 | V 1.65 | W 3.02
P14: Y 2.42 | G 2.04 | M 1.17 | C 2.18 | T 1.15

Reference: the supplement of paper PMC10567573
